FRET efficiency data for one substance are collected here from publication PMC4169592.

This experiment deals with EGFP-Vinexin β (mouse). As to the kind of experiment: FRET or BRET; acceptor photobleaching FRET in stress granules of live COS-7 cells; EGFP donor, mCherry RFP acceptor. A general note: BRET reads energy transfer from a luciferase to a nearby fluorophore.

RFP-CPEB4 (natural protein) had an FRET efficiency of 14.5%.
